Measurements as given in US20150299265A1 (Molecular Partners, published 2015).

molecular target: T1, Recombinant human HER2 ectodomain (human, UniProt P04626 23-652, biotinylated on primary amines (for SPR and crude extract ELISA)); experiment: SPR (ProteOn); biotinylated human HER2 on neutravidin chip, monovalent DARPin injected
T1 construct: extracellular domain; also called ErbB2; ectodomain of human HER2; not shown: Flag tag
Experimental: Protein binding kinetics of interesting purified HER2-binding DARPins were assayed by Surface Plasmon Resonance (SPR) analysis with a ProteOn array system (BioRad) using a setup, where biotinylated human HER2 was immobilized via neutravidin and the interaction was measured by adding free monovalent DARPin. The determination of Kd values was performed according to standard procedures.
SPR was measured using a ProteOn instrument (BioRad) and measurement was performed according standard procedures known to the person skilled in the art. The running buffer was PBS, pH 7.4, containing 0.005% Tween 20®. Neutravidin was covalently immobilized on a GLC chip (BioRad) to a level of about 8000 resonance units (RU). Immobilization of HER2 on the neutravidin coated chip was then performed. […] The signals (i.e. resonance unit (RU) values) of an uncoated reference cell and a reference injection (i.e. injection of running buffer only) were subtracted from the RU traces obtained after injection of […] (double-referencing). From the SRP traces obtained from the on-rate and off-rate measurements the on- and off-rate of the corresponding DARPin HER2 interaction can be determined.
Dissociation constants (Kd) were calculated from the estimated on- and off-rates using standard procedures known to the person skilled in the art.

Binder | Kd
DARPin #19 (designed binder, monovalent) MRGSHHHHHHGSDLGKKLLEAARAGQDDEVRELLKAGADVNAKDEYGLTPLYLATAHGHLEIVEVLLKNGADVNAVDAIGFTPLHLAAFIGHLEIAEVLLKHGADVNAQDKSGKTPADLAAGAGHEDIAEVLQKLN | 0.944 nM
DARPin #20 (designed binder, monovalent) MRGSHHHHHHGSDLGKKLLEAARAGQDDEVRELLKAGADVNAKDEYGLTPLYLATAHGHLEIVEVLLKAGADVNAVDAIGFTPLHLAAFIGHLEIAEVLLKAGADVNAQDKFGKTPADIAAGAGNEDIAEVLQKLN | 0.258 nM
DARPin #8 (designed binder, monovalent) MRGSHHHHHHGSDLGIKLLWAAAHGQDDEVRILLAADADVNAKDWYGTTPLHIAAVAGHLEIVEVLLKAGADVNAKDDFGTTPLHLAAYHGHLEIVEVLLKAGADVNAQDWQGQTPADLAAQDGHEDIAEVLQKLN | 0.483 nM
DARPin #52 (designed binder, monovalent) MRGSHHHHHHGSDLGVKLLWAAAHGQDDEVRILLAADADVNAKDWYGTTPLHIAAVAGHLEIVEVLLKAGADVNAKDDFGTTPLHAAADYGHLEIVEVLLKAGADVNAQDYTGHTPADLAAVYGHEDIAAVLQKLN | 0.137 nM
DARPin #9 (designed binder, monovalent) MRGSHHHHHHGSDLGHKLLEAAVAGQDDEVRILLAAGADVNAKDWYGKTPLHFAAGLGHLEIVEVLLKAGADVNAKDEDGQTPLHLAAAYGHLEIVEVLLKAGADVNAQDNDGFTPADLAADSGHEDIAEVLQKLN | 0.417 nM
DARPin #53 (designed binder, monovalent) MRGSHHHHHHGSDLGAKLLWAAAKGQDDEVRILLAAGADVNAKDWEGVTPLHIAAHAGHLEIVEVLLKAGADVNAKDIIGWTPLHSAAVYGHLEIVEVLLKAGADVNAQDWYGTTPADLAAWWGHEDIAVVLQKLN | 1.46 nM
DARPin #16 (designed binder, monovalent) MRGSHHHHHHGSDLGIKLLQAANLGQDDEVRELLKAGADVNAKDSIGQTPLHWAARRGHLEIVEVLLKAGADVNAKDEYGVTPLHLAASLGHLEIVEVLLKAGADVNAQDESGETPADLAALHGHEDIAEVLQKLN | 2.67 nM
DARPin #17 (designed binder, monovalent) MRGSHHHHHHGSDLGLKLLQAANLGQDDEVRILLAAGADVNAKDSIGQTPLHWAARRGHLEIVEVLLKAGADVNAKDEYGVTPLHLAASLGHLEIVEVLLKAGADVNAQDTAGQTPADLAADDGHEDIAVVLQKLN | 2.3 nM
DARPin #18 (designed binder, monovalent) MRGSHHHHHHGSDLGKKLLEAARAGQDDEVRILMANGADVNAKDEYGLTPLYLATAHGHLEIVEVLLKNGADVNAVDAIGFTPLHLAAFIGHLEIAEVLLKHGADVNAQDKFGKTAFDISIGNGNEDLAEILQKLN | 0.335 nM
DARPin #7 (designed binder, monovalent) MRGSHHHHHHGSDLGIKLLFAAAKGQDDEVRILLAAGADVNAKDFEGYTPLHVAAYDGHLEIVEVLLKAGADVNAKDSQGRTPLHEAAYSGHLEIVEVLLKAGADVNAQDDAGETPADLAAAWGHEDIAEVLQKLN | 1.03 nM
DARPin #12 (designed binder, monovalent) MRGSHHHHHHGSDLGKKLLEAARAGQDDEVRILMANGADVNAKDFYGITPLHLAAAYGHLEIVEVLLKHGADVNAHDWNGWTPLHLAAKYGHLEIVEVLLKHGADVNAIDNAGKTPLHLAAAHGHLEIVEVLLKYGADVNAQDKFGKTAFDISIDNGNEDLAEILQKLN | 1.41 nM
DARPin #21 (designed binder, monovalent) MRGSHHHHHHGSDLGKKLLEAARAGQDDEVRILMANGADVNATDIHGHTPLHLAAAMGHLEIVEVLLKNGADVNANDWRGFTPLHLAALNGHLEIVEVLLKNGADVNATDTAGNTPLHLAAWFGHLEIVEVLLKNGADVNAQDKFGKTAFDISIDNGNEDLAEILQKLN | 1.65 nM
DARPin #51 (designed binder, monovalent) MRGSHHHHHHGSDLGNKLLIAASVGQDDEVRILLAAGADVNAKDETGWTPLHLAAAWGHLEIVEVLLKAGADVNAKDVKGQTPLHLAAAYGHLEIVEVLLKAGADVNAQDNDGYTPADLAARYGHEDIAEVLQKLN | 1.3 nM
DARPin #14 (designed binder, monovalent) MRGSHHHHHHGSDLGAKLLIAATVGQDDEVRILLAAGADVNAKDTIGHTPLHRAAFVGQLEIVEVLLKAGADVNAQDDYGWTPADLAANSGHEDIAEVLQKLN | 1.88 nM
DARPin #15 (designed binder, monovalent) MRGSHHHHHHGSDLGAKLLVAATSGQDDEVRILLAAGADVNAKDRIGFTPLHRAAFVGHLEIVEVLLKAGADVNAQDDFGHTPADLAASLGHEDIAEVLQKLN | 0.468 nM
DARPin #5 (designed binder, monovalent) MRGSHHHHHHGSDLGVKLLWAAARGQDDEVRILLAAGADVNAKDFQGITPLHIAATNGHLEIVEVLLKAGADVNAKDITGETPLHHAADSGHLEIVEVLLKAGADVNAQDKAGVTPADLAAAWGHEDIAEVLQKLN | 0.0708 nM

molecular target: T2, Human HER2 expressed on tumour cells (human, UniProt P04626 23-1255); experiment: cell-based or functional assay

Binder | IC50, inhibition of BT474 proliferation (single experiment of FIG. 2A)
DARPin #41 (designed binder) MRGSHHHHHHGSDLGAKLLSDLGVKLLWAAARGQDDEVRILLAAGADVNAKDFQGITPLHIAAQSGHLEIVEVLLKAGADVNAKDVTGDTPLHLAAQHGHLVIVEVLLKAGADVNAQDERGWTPADLAADWGHEDIAEVLQKLGGGGSGGGGSRSDLGKKLLEAARAGQDDEVRILMANGADVNAKDEYGLTPLYLATAHGHLEIVEVLLKNGADVNAVDAIGFTPLHLAAFIGHLEIAEVLLKHGADVNAQDKFGKTAFDISIGNGNEDLAEILQKLN | ~2 nM

molecular target: T1, Recombinant human HER2 ectodomain; experiment: ELISA on plate-coated full length HER2 (domain I-IV), detection by anti-RGS-His antibody; with and without 500 nM soluble HER2 domain I or domain I-III
Experimental: The DARPins (20 nM) were preincubated with HER2 domain I, domain I-III or domain III-IV (in each case at a domain concentration of 500 nM) in PBS for 45 min at room temperature. […] Bound DARPins were specifically detected using a monoclonal mouse anti RGS-His antibody (Qiagen Cat.34650) as primary antibody and an anti-mouse antibody labeled with horse radish peroxidase (Pierce, Cat.31438) as secondary antibody.
The read out was made at 450 nm.

Binder | binding result
DARPin #50 (designed binder, also called negative control ankyrin repeat domain) MRGSHHHHHHGSDLGKKLLEAARAGQDDEVRILMANGADVNAKDKDGYTPLHLAAREGHLEIVEVLLKAGADVNAKDKDGYTPLHLAAREGHLEIVEVLLKAGADVNAQDKFGKTAFDISIDNGNEDLAEILQKLN | no binding (tested: 20 nM (not printed on the sheet))

molecular target: T2, Human HER2 expressed on tumour cells; experiment: cell-based or functional assay; remark: another data set of the same source

Binder | % activity vs. DARPin # 41, BT474 cell proliferation | IC50 [nM], inhibition of BT474 cell proliferation (BrdU)
DARPin #41 (designed binder) MRGSHHHHHHGSDLGAKLLSDLGVKLLWAAARGQDDEVRILLAAGADVNAKDFQGITPLHIAAQSGHLEIVEVLLKAGADVNAKDVTGDTPLHLAAQHGHLVIVEVLLKAGADVNAQDERGWTPADLAADWGHEDIAEVLQKLGGGGSGGGGSRSDLGKKLLEAARAGQDDEVRILMANGADVNAKDEYGLTPLYLATAHGHLEIVEVLLKNGADVNAVDAIGFTPLHLAAFIGHLEIAEVLLKHGADVNAQDKFGKTAFDISIGNGNEDLAEILQKLN | 100% | 4.01 nM
